Reference: US20040152079A1 (Scripps Research, published 2004)

B1: human mini TyrRS (ligand)
chain: MGDAPSPEEKLHLITRNLQEVLGEEKLKEILKERELKIYWGTATTGKPHVAYFVPMSKIADFLKAGCEVTILFADLHAYLDNMKAPWELLELRVSYYENVIKAMLESIGVPLEKLKFIKGTDYQLSKEYTLDVYRLSSVVTQHDSKKAGAEVVKQVEHPLLSGLLYPGLQALDEEYLKVDAQFGGIDQRKIFTFAEKYLPALGYSKRVHLMNPMVPGLTGSKMSSSEEESKIDLLDRKEDVKKKLKKAFCEPGNVENNGVLSFIKHVLFPLKSEFVILRDEKWGGNKTYTAYVDLEKDFAAEVVHPGDLKNSVEVALNKLLDPIREKFNTPALKKLASAAYPDPSKQKPMAKGPAKNSEPEEVILEHHHHHH
modifications: Radioiodinated (125I) where used as the labelled ligand; iodinated residues not stated. Runs as a homodimer on gel filtration.
notes: Recombinant, made in E. coli
B2: type A IL-8 receptor (receptor, UniProt P25024 1-350, looked up)
chain: MSNITDPQMWDFDDLNFTGMPPADEDYSPCMLETETLNKYVVIIAYALVFLLSLLGNSLVMLVILYSRVGRSVTDVYLLNLALADLLFALTLPIWAASKVNGWIFGTFLCKVVSLLKEVNFYSGILLLACISVDRYLAIVHATRTLTQKRHLVKFVCLGCWGLSMNLSLPFFLFRQAYHPNNSSPVCYEVLGNDTAKWRMVLRILPHTFGFIVPLFVMLFCYGFTLRTLFKAHMGQKHRAMRVIFAVVLIFLLCWLPYNLVLLADTLMRTQVIQESCERRNNIGRALDATEILGFLHSCLNPIIYAFIGQNFRHGFLKILAMHGLVSKEFLARHRVTSYTSSSVNVSSNL
notes: whole, on cells; also called IL-8 receptor type A; CXCR1

Assays:
[1] = molecular target: PMN receptor for mini TyrRS (on human PMNs) (human); assay: Scatchard analysis of ^125I-mini TyrRS binding to human PMNs at 4 C
Source text: The supernatant was aspirated, and the cell sediment was resuspended using EcoLite (ICN Biomedicals, Irvine, Calif.) and analyzed in a scintillation counter.

[2] = molecular target: B1; assay: radioligand binding (Scatchard) to RBL2H3 cells transfected with the type A IL-8 receptor
Description: Following incubation, cells were separated from unbound radioactivity as described herein.
Untransfected RBL2H3 cells express neither the type A nor type B receptors.

| Binder | Kd [1] | Kd [2] |
| --- | --- | --- |
| B1 | 21 nM | – |
| B2 | – | 8 nM |
